The record followed here is paper PMC8115288 (2021).

For test [1], the target named is T1, GST-CTD (C-terminal domain of HIV-1 integrase, aa 201-288) (HIV-1 (Hx3B), UniProt P04585 1348-1435).
T1 chain: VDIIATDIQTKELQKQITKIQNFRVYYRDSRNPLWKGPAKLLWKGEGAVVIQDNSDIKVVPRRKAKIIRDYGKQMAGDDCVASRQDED
Description: GST-CTD 0.027 uM.

Test [2] has as its target T1, GST-CTD (C-terminal domain of HIV-1 …). Description: GST-CTD 0.083 uM.

B1: His6-SUMO-INI1_(183-304) (domain or fragment)
chain: PEVLVPIRLDMEIDGQKLRDAFTWNMNEKLMTPEMFSEILCDDLDLNPLTFVPAIASAIRQQIESYPTDSILEDQSDQRVIIKLNIHVGNISLVDQFEWDMSEKENSPEKFALKLCSELGLG
For orientation: Kd means the constant that tells how readily two partners part at equilibrium. Read a low Kd as higher affinity. B1: the dissociation constant (Kd) is 3.5 nM in test [1] and 3 nM in test [2].
